{"source": "patent US9051364B2", "about": "“Composition for producing anti-amyloid beta peptide antibodies with D-peptides” (FORSCHUNGSZENTRUM JUELICH GMBH, priority 2008, dated 2015)", "target": "T1, amyloid beta peptide (Homo sapiens, UniProt P05067)", "T1 construct": "tested for the recognition of both the D3 peptide and the amyloid beta peptide in a standard ELISA", "T1 sequence (P05067 672-713 limits assumed)": "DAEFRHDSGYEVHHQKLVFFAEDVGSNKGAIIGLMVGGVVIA", "assay": "Immunization of mice with D-peptides", "format": "in vivo", "details": "D3 covalently bonded to KLH, booster injections", "protocol": "Mice were immunized with D-peptides. Use was made of the D3 peptide and also a retro-inverse peptide of the amyloid beta peptide (riAbeta1-16; retro-inverso-Abeta(1-16)). After multiple booster injections (booster effect), fusion to generate monoclonal antibodies was carried out according to standard methods. It was possible to isolate monoclonal antibodies which bind to D3, riAbetal-16, and to the amyloid beta peptide. The immunization with the mentioned D-peptides thus leads to a protective immune response against the amyloid beta peptide. D3 was covalently bonded (crosslinking) to KLH (keyhole limpet hemocyanin) and immunized mice with standard procedures. These were then fused with mouse myeloma cells according to standard protocols. The cell culture supernatant of the resulting hybridoma cells were then tested for the recognition of both the D3 peptide and the amyloid beta peptide in a standard ELISA.", "note": "Where no end group is shown, it is not given here. [ ]: non-standard residue; d: D form.", "data": [{"substance": "rprtr lhthr nr ([dR][dP][dR][dT][dR][dL][dH][dT][dH][dR][dN][dR]; also: conjugated to KLH) [D3, D-peptide used as immunogen, covalently bonded to KLH]", "values": [{"measurement": "antibody response against the amyloid beta peptide after immunization", "result": "results in an antibody response against the amyloid beta peptide"}]}]}
